Reference: the supplement of paper PMC11316812
± gives the standard deviation of the averaged measurements.

Experiments:
[1] = test system: hTERT-HMEC; assay: percentage of EdU-negative (G0-arrested) nuclei per well, 72 h; higher = more G0 arrest; details: reference: sequence is the full UniProt precursor, the tested protein was the secreted form or ectodomain
[2] = test system: MCF7; assay: as above; details: reference: sequence is the full UniProt precursor, the tested protein was the secreted form or ectodomain
[3] = protein concentration 0.0225 µM
[4] = protein concentration 0.03125 µM
[5] = protein concentration 0.3125 µM
[6] = protein concentration 0.0065 µM
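Note: secreted proteins added to cultured cells, EdU pulse at the end, nuclei found by Hoechst imaging, EdU status from nuclear versus surrounding ring intensity ratio, PBS as neutral control.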

Row | Sequence | percentage of EdU-negative [1, 3] | percentage of EdU-negative ([1]; protein concentration 0.225 µM) | percentage of EdU-negative [2, 3] | percentage of EdU-negative ([2]; protein concentration 0.225 µM) | other results
1 | MVDGVMILPVLIMIALPSPSMEDEKPKVNPKLYMCVCEGLSCGNEDHCEGQQCFSSLSINDGFHVYQKGCFQVYEQGKMTCKTPPSPGQAVECCQGDWCNRNITAQLPTKGKSFPGTQNFHLEVGLIILSVVFAVCLLACLLGVALRKFKRRNQERLNPRDVEYGTIEGLITTNVGDSTLADLLDHSCTSGSGSGLPFLVQRTVARQITLLECVGKGRYGEVWRGSWQGENVAVKIFSSRDEKSWFRETELYNTVMLRHENILGFIASDMTSRHSSTQLWLITHYHEMGSLYDYLQLTTLDTVSCLRIVLSIASGLAHLHIEIFGTQGKPAIAHRDLKSKNILVKKNGQCCIADLGLAVMHSQSTNQLDVGNNPRVGTKRYMAPEVLDETIQVDCFDSYKRVDIWAFGLVLWEVARRMVSNGIVEDYKPPFYDVVPNDPSFEDMRKVVCVDQQRPNIPNRWFSDPTLTSLAKLMKECWYQNPSARLTALRIKKTLTKIDNSLDKLKTDC | 5.41 ± 0.37% | 5.41 ± 1.3% | 26.7 ± 0.75% | 27.2 ± 0.41% | –
2 | MVFLPLKWSLATMSFLLSSLLALLTVSTPSWCQSTEASPKRSDGTPFPWNKIRLPEYVIPVHYDLLIHANLTTLTFWGTTKVEITASQPTSTIILHSHHLQISRATLRKGAGERLSEEPLQVLEHPRQEQIALLAPEPLLVGLPYTVVIHYAGNLSETFHGFYKSTYRTKEGELRILASTQFEPTAARMAFPCFDEPAFKASFSIKIRREPRHLAISNMPLVKSVTVAEGLIEDHFDVTVKMSTYLVAFIISDFESVSKITKSGVKVSVYAVPDKINQADYALDAAVTLLEFYEDYFSIPYPLPKQDLAAIPDFQSGAMENWGLTTYRESALLFDAEKSSASSKLGITMTVAHELAHQWFGNLVTMEWWNDLWLNEGFAKFMEFVSVSVTHPELKVGDYFFGKCFDAMEVDALNSSHPVSTPVENPAQIREMFDDVSYDKGACILNMLREYLSADAFKSGIVQYLQKHSYKNTKNEDLWDSMASICPTDGVKGMDGFCSRSQHSSSSSHWHQEGVDVKTMMNTWTLQKGFPLITITVRGRNVHMKQEHYMKGSDGAPDTGYLWHVPLTFITSKSDMVHRFLLKTKTDVLILPEEVEWIKFNVGMNGYYIVHYEDDGWDSLTGLLKGTHTAVSSNDRASLINNAFQLVSIGKLSIEKALDLSLYLKHETEIMPVFQGLNELIPMYKLMEKRDMNEVETQFKAFLIRLLRDLIDKQTWTDEGSVSERMLRSQLLLLACVHNYQPCVQRAEGYFRKWKESNGNLSLPVDVTLAVFAVGAQSTEGWDFLYSKYQFSLSSTEKSQIEFALCRTQNKEKLQWLLDESFKGDKIKTQEFPQILTLIGRNPVGYPLAWQFLRKNWNKLVQKFELGSSSIAHMVMGTTNQFSTRTRLEEVKGFFSSLKENGSQLRCVQQTIETIEENIGWMDKNFDKIRVWLQSEKLERM [Q9NZ08] | 5.43 ± 0.72% | 9.42 ± 1.9% | 28.5 ± 2.6% | 25.9 ± 1.9% | –
3 | MVGAMWKVIVSLVLLMPGPCDGLFRSLYRSVSMPPKGDSGQPLFLTPYIEAGKIQKGRELSLVGPFPGLNMKSYAGFLTVNKTYNSNLFFWFFPAQIQPEDAPVVLWLQGGPGGSSMFGLFVEHGPYVVTSNMTLRDRDFPWTTTLSMLYIDNPVGTGFSFTDDTHGYAVNEDDVARDLYSALIQFFQIFPEYKNNDFYVTGESYAGKYVPAIAHLIHSLNPVREVKINLNGIAIGDGYSDPESIIGGYAEFLYQIGLLDEKQKKYFQKQCHECIEHIRKQNWFEAFEILDKLLDGDLTSDPSYFQNVTGCSNYYNFLRCTEPEDQLYYVKFLSLPEVRQAIHVGNQTFNDGTIVEKYLREDTVQSVKPWLTEIMNNYKVLIYNGQLDIIVAAALTERSLMGMDWKGSQEYKKAEKKVWKIFKSDSEVAGYIRQAGDFHQVIIRGGGHILPYDQPLRAFDMINRFIYGKGWDPYVG [Q9H3G5] | – | – | – | – | percentage of EdU-negative ([1]; protein concentration 0.014 µM): 5.19 ± 0.19%; percentage of EdU-negative ([1]; protein concentration 0.14 µM): 6.64 ± 0.14%; percentage of EdU-negative ([2]; protein concentration 0.014 µM): 26.1 ± 4.2%; percentage of EdU-negative ([2]; protein concentration 0.14 µM): 29.1 ± 0.47%
4 | MVGKLKQNLLLACLVISSVTVFYLGQHAMECHHRIEERSQPVKLESTRTTVRTGLDLKANKTFAYHKDMPLIFIGGVPRSGTTLMRAMLDAHPDIRCGEETRVIPRILALKQMWSRSSKEKIRLDEAGVTDEVLDSAMQAFLLEIIVKHGEPAPYLCNKDPFALKSLTYLSRLFPNAKFLLMVRDGRASVHSMISRKVTIAGFDLNSYRDCLTKWNRAIETMYNQCMEVGYKKCMLVHYEQLVLHPERWMRTLLKFLQIPWNHSVLHHEEMIGKAGGVSLSKVERSTDQVIKPVNVGALSKWVGKIPPDVLQDMAVIAPMLAKLGYDPYANPPNYGKPDPKIIENTRRVYKGEFQLPDFLKEKPQTEQVE | 4.95 ± 1.4% | 7.95 ± 0.61% | 26.5 ± 0.46% | 25.4 ± 1.6% | –
5 | MVGKMWPVLWTLCAVRVTVDAISVETPQDVLRASQGKSVTLPCTYHTSTSSREGLIQWDKLLLTHTERVVIWPFSNKNYIHGELYKNRVSISNNAEQSDASITIDQLTMADNGTYECSVSLMSDLEGNTKSRVRLLVLVPPSKPECGIEGETIIGNNIQLTCQSKEGSPTPQYSWKRYNILNQEQPLAQPASGQPVSLKNISTDTSGYYICTSSNEEGTQFCNITVAVRSPSMNVALYVGIAVGVVAALIIIGIIIYCCCCRGKDDNTEDKEDARPNREAYEEPPEQLRELSREREEEDDYRQEEQRSTGRESPDHLDQ | 4.72 ± 0.17% | 5.86 ± 0.41% | 26.33 ± 0.14% | 28.18 ± 0.27% | –
6 | MVGPAPRRRLRPLAALALVLALAPGLPTARAGQTPRPAERGPPVRLFTEEELARYGGEEEDQPIYLAVKGVVFDVTSGKEFYGRGAPYNALTGKDSTRGVAKMSLDPADLTHDTTGLTAKELEALDEVFTKVYKAKYPIVGYTARRILNEDGSPNLDFKPEDQPHFDIKDEF [Q9UMX5] | – | – | – | – | percentage of EdU-negative [1, 4]: 4.98 ± 0.59%; percentage of EdU-negative [1, 5]: 6.64 ± 2.3%; percentage of EdU-negative [2, 4]: 22.8 ± 0.65%; percentage of EdU-negative [2, 5]: 23.5 ± 1.4%
7 | MVGTKAWVFSFLVLEVTSVLGRQTMLTQSVRRVQPGKKNPSIFAKPADTLESPGEWTTWFNIDYPGGKGDYERLDAIRFYYGDRVCARPLRLEARTTDWTPAGSTGQVVHGSPREGFWCLNREQRPGQNCSNYTVRFLCPPGSLRRDTERIWSPWSPWSKCSAACGQTGVQTRTRICLAEMVSLCSEASEEGQHCMGQDCTACDLTCPMGQVNADCDACMCQDFMLHGAVSLPGGAPASGAAIYLLTKTPKLLTQTDSDGRFRIPGLCPDGKSILKITKVKFAPIVLTMPKTSLKAATIKAEFVRAETPYMVMNPETKARRAGQSVSLCCKATGKPRPDKYFWYHNDTLLDPSLYKHESKLVLRKLQQHQAGEYFCKAQSDAGAVKSKVAQLIVIASDETPCNPVPESYLIRLPHDCFQNATNSFYYDVGRCPVKTCAGQQDNGIRCRDAVQNCCGISKTEEREIQCSGYTLPTKVAKECSCQRCTETRSIVRGRVSAADNGEPMRFGHVYMGNSRVSMTGYKGTFTLHVPQDTERLVLTFVDRLQKFVNTTKVLPFNKKGSAVFHEIKMLRRKKPITLEAMETNIIPLGEVVGEDPMAELEIPSRSFYRQNGEPYIGKVKASVTFLDPRNISTATAAQTDLNFINDEGDTFPLRTYGMFSVDFRDEVTSEPLNAGKVKVHLDSTQVKMPEHISTVKLWSLNPDTGLWEEEGDFKFENQRRNKREDRTFLVGNLEIRERRLFNLDVPESRRCFVKVRAYRSERFLPSEQIQGVVISVINLEPRTGFLSNPRAWGRFDSVITGPNGACVPAFCDDQSPDAYSAYVLASLAGEELQAVESSPKFNPNAIGVPQPYLNKLNYRRTDHEDPRVKKTAFQISMAKPRPNSAEESNGPIYAFENLRACEEAPPSAAHFRFYQIEGDRYDYNTVPFNEDDPMSWTEDYLAWWPKPMEFRACYIKVKIVGPLEVNVRSRNMGGTHRQTVGKLYGIRDVRSTRDRDQPNVSAACLEFKCSGMLYDQDRVDRTLVKVIPQGSCRRASVNPMLHEYLVNHLPLAVNNDTSEYTMLAPLDPLGHNYGIYTVTDQDPRTAKEIALGRCFDGTSDGSSRIMKSNVGVALTFNCVERQVGRQSAFQYLQSTPAQSPAAGTVQGRVPSRRQQRASRGGQRQGGVVASLRFPRVAQQPLIN | – | – | – | – | percentage of EdU-negative [1, 6]: 4.85 ± 0.48%; percentage of EdU-negative ([1]; protein concentration 0.065 µM): 4.77 ± 1%; percentage of EdU-negative [2, 6]: 25.3 ± 0.34%; percentage of EdU-negative ([2]; protein concentration 0.065 µM): 25.9 ± 2%
8 | MVKQIESKTAFQEALDAAGDKLVVVDFSATWCGPCKMIKPFFHSLSEKYSNVIFLEVDVDDCQDVASECEVKCMPTFQFFKKGQKVGEFSGANKEKLEATINELV | – | – | – | – | percentage of EdU-negative [1, 4]: 4.86 ± 0.3%; percentage of EdU-negative [1, 5]: 4.9 ± 0.23%; percentage of EdU-negative [2, 4]: 25.2 ± 1.2%; percentage of EdU-negative [2, 5]: 23.8 ± 1.9%
9 | MVLAAPLLLGFLLLALELRPRGEAAEGPAAAAAAAAAAAAAGVGGERSSRPAPSVAPEPDGCPVCVWRQHSRELRLESIKSQILSKLRLKEAPNISREVVKQLLPKAPPLQQILDLHDFQGDALQPEDFLEEDEYHATTETVISMAQETDPAVQTDGSPLCCHFHFSPKVMFTKVLKAQLWVYLRPVPRPATVYLQILRLKPLTGEGTAGGGGGGRRHIRIRSLKIELHSRSGHWQSIDFKQVLHSWFRQPQSNWGIEINAFDPSGTDLAVTSLGPGAEGLHPFMELRVLENTKRSRRNLGLDCDEHSSESRCCRYPLTVDFEAFGWDWIIAPKRYKANYCSGQCEYMFMQKYPHTHLVQQANPRGSAGPCCTPTKMSPINMLYFNDKQQIIYGKIPGMVVDRCGCS | – | – | – | – | percentage of EdU-negative [1, 4]: 4.52 ± 0.24%; percentage of EdU-negative [1, 5]: 5.2 ± 0.9%; percentage of EdU-negative [2, 4]: 24.2 ± 2.7%; percentage of EdU-negative [2, 5]: 26.2 ± 3.2%
10 | MVLAQGLLSMALLALCWERSLAGAEETIPLQTLRCYNDYTSHITCRWADTQDAQRLVNVTLIRRVNEDLLEPVSCDLSDDMPWSACPHPRCVPRRCVIPCQSFVVTDVDYFSFQPDRPLGTRLTVTLTQHVQPPEPRDLQISTDQDHFLLTWSVALGSPQSHWLSPGDLEFEVVYKRLQDSWEDAAILLSNTSQATLGPEHLMPSSTYVARVRTRLAPGSRLSGRPSKWSPEVCWDSQPGDEAQPQNLECFFDGAAVLSCSWEVRKEVASSVSFGLFYKPSPDAGEEECSPVLREGLGSLHTRHHCQIPVPDPATHGQYIVSVQPRRAEKHIKSSVNIQMAPPSLNVTKDGDSYSLRWETMKMRYEHIDHTFEIQYRKDTATWKDSKTETLQNAHSMALPALEPSTRYWARVRVRTSRTGYNGIWSEWSEARSWDTESVLPMWVLALIVIFLTIAVLLALRFCGIYGYRLRRKWEEKIPNPSKSHLFQNGSAELWPPGSMSAFTSGSPPHQGPWGSRFPELEGVFPVGFGDSEVSPLTIEDPKHVCDPPSGPDTTPAASDLPTEQPPSPQPGPPAASHTPEKQASSFDFNGPYLGPPHSRSLPDILGQPEPPQEGGSQKSPPPGSLEYLCLPAGGQVQLVPLAQAMGPGQAVEVERRPSQGAAGSPSLESGGGPAPPALGPRVGGQDQKDSPVAIPMSSGDTEDPGVASGYVSSADLVFTPNSGASSVSLVPSLGLPSDQTPSLCPGLASGPPGAPGPVKSGFEGYVELPPIEGRSPRSPRNNPVPPEAKSPVLNPGERPADVSPTSPQPEGLLVLQQVGDYCFLPGLGPGPLSLRSKPSSPGPGPEIKNLDQAFQVKKPPGQAVPQVPVIQLFKALKQQDYLSLPPWEVNKPGEVC | 4.92 ± 0.4% | 8.11 ± 1.6% | 23.9 ± 0.89% | 26.4 ± 2.5% | –
11 | MVLCFPLLLLLLVLWGPVCPLHAWPKRLTKAHWFEIQHIQPSPLQCNRAMSGINNYTQHCKHQNTFLHDSFQNVAAVCDLLSIVCKNRRHNCHQSSKPVNMTDCRLTSGKYPQCRYSAAAQYKFFIVACDPPQKSDPPYKLVPVHLDSIL | 4.8 ± 0.73% | 7.49 ± 1.4% | 25.2 ± 2.5% | 25 ± 4.7% | –
12 | MVLCWLLLLVMALPPGTTGVKDCVFCELTDSMQCPGTYMHCGDDEDCFTGHGVAPGTGPVINKGCLRATSCGLEEPVSYRGVTYSLTTNCCTGRLCNRAPSSQTVGATTSLALGLGMLLPPRLL [Q8TDM5] | 4.81 ± 0.12% | 5.43 ± 0.73% | 27.6 ± 0.57% | 25.47 ± 0.088% | –
